# Experimental data published in publication PMC4980704.
# Molecular target: VEGF165 (human, UniProt P15692-4 27-191)
# Assay: MST
binder,measurement,value
TGTGGGGGTGGACGGGCCGGGTAGA (structured_DNA) [V7t1 (3'-Cy3)],Kd,75.9 ± 13 nM
